From patent US20180127505A1, “HUMANIZED ANTI-AXL ANTIBODIES AND THEIR CONJUGATES” (MEDIMMUNE LIMITED, priority 2015, published 2018)

T1: AXL on MDA-MB-231 cells (UniProt P30530 26-894, limits assumed)
T1 sequence (looked up): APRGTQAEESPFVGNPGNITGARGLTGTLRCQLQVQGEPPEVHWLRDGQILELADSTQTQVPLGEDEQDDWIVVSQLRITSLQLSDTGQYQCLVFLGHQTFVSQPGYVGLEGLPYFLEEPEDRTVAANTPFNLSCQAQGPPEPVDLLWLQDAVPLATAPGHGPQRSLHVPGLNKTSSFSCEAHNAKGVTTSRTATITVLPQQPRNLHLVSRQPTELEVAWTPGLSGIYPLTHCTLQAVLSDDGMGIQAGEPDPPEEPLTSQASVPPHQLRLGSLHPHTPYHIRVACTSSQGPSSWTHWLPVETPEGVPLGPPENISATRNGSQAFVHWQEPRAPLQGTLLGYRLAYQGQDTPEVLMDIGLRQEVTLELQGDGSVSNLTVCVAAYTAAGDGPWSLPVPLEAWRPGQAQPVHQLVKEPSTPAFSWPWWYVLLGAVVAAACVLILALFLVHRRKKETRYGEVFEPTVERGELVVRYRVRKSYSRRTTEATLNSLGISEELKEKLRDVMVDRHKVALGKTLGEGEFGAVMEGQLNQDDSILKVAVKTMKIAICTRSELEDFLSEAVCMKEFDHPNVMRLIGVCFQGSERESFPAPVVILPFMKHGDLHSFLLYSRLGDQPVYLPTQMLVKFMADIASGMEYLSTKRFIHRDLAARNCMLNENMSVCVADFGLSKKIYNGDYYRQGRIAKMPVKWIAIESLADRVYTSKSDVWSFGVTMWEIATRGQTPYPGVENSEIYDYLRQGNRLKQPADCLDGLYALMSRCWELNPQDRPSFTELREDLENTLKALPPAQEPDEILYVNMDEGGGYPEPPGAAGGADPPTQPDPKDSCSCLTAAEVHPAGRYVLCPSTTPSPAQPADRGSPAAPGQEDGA

T2: Human AXL-Strep-His (produced by Evitria AG in transiently transfected CHO cells) (human, UniProt P30530 26-451, limits assumed)
T2 construct: also called Axl-Strep-His antigen; human AxI-Strep-His; not shown: Strep and His tags
T2 sequence: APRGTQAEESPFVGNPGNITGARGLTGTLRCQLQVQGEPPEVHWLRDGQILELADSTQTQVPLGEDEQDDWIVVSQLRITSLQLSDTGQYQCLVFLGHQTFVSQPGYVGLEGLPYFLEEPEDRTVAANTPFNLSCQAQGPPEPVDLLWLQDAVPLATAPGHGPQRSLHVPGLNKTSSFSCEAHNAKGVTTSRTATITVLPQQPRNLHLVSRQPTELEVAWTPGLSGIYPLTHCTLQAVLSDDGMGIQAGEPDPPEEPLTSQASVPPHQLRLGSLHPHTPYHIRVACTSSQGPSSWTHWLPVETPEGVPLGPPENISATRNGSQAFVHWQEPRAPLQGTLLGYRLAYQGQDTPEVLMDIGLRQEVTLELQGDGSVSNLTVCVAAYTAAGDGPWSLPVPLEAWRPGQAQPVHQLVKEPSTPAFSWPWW

T3: Cynomolgus monkey AXL (Macaca fascicularis, UniProt A0A2K5WXE0)
T3 construct: form not described
T3 sequence (antigen): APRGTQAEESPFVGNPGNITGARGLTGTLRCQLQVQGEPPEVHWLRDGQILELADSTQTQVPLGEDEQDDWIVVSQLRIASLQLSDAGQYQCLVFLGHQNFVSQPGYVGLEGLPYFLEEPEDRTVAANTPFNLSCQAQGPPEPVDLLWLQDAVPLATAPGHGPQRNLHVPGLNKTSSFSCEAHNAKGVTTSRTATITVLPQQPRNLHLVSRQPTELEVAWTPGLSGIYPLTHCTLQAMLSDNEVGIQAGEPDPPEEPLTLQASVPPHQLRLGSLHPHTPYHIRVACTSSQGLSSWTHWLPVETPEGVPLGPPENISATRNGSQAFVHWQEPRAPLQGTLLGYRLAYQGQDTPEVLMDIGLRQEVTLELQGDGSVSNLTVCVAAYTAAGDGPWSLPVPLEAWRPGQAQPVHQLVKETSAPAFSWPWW

T4: Human Axl-Fc chimera (R&D Systems #154-AL) (human, UniProt P30530 26-451)
T4 construct: Bought reagent; also called Axl-Fc antigen; AXL-Fc chimera antigen; Fc part of the bought chimera not given
T4 sequence: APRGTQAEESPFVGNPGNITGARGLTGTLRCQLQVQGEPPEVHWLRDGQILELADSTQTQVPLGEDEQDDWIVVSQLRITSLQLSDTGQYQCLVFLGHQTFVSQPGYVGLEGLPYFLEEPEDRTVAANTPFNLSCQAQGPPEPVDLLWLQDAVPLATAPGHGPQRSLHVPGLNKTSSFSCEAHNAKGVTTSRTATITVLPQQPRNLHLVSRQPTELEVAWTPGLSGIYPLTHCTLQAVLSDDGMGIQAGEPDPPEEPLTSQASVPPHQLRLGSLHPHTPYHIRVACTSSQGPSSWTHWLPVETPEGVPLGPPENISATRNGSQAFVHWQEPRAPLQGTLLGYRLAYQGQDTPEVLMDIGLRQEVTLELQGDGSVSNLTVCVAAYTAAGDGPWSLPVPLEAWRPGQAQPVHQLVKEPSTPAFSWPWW


Columns and labels:
AXL on MDA-MB-231 cells = target: T1, AXL on MDA-MB-231 cells; assay: cell-based or functional assay
[1] = target: T2, Human AXL-Strep-His (produced by …); assay: SPR (Biacore T200), AXL-Strep-His amine-coupled to CM5 chip, antibody as analyte, heterogeneous ligand model; column head KD1; heterogeneous ligand model; AXL-Strep-His antigen
[2] = target: T2, Human AXL-Strep-His (produced by …); assay: SPR (Biacore T200), AXL-Strep-His amine-coupled to CM5 chip, antibody as analyte, heterogeneous ligand model
Cynomolgus monkey AXL = target: T3, Cynomolgus monkey AXL; assay: ELISA on cynomolgus monkey AXL (coating antigen not described in the text), OD 450nm against Log10[IgG (µg/mL)] [B. Cynomolgus monkey AXL]
[3] = target: T4, Human Axl-Fc chimera (R&D Systems …); assay: SPR (Biacore T200), AXL-Fc amine-coupled to CM5 chip, antibody as analyte, bivalent model
[4] = target: T2, Human AXL-Strep-His (produced by …); assay: ELISA on plate-coated human AXL-Strep-His (Protocol 4), OD 450nm against Log10[IgG (µg/mL)] [A. Human Axl]
[5] = target: T2, Human AXL-Strep-His (produced by …); assay: human AXL ELISA (Protocol 4), untreated antibody of the accelerated stability analysis, OD 450nm against Log10[IgG (µg/mL)]
[6] = target: T2, Human AXL-Strep-His (produced by …); assay: SPR (Biacore T200), AXL-Strep-His amine-coupled to CM5 chip, antibody as analyte, bivalent model
[7] = target: T2, Human AXL-Strep-His (produced by …); assay: SPR (Biacore T200), AXL-Strep-His amine-coupled to CM5 chip, antibody as analyte, bivalent model; column head KD1

Binder | GI50 (pg/ml), MDA-MB-231 cytotoxicity, MTS assay, 5 days (AXL on MDA-MB-231 cells) [pg/mL] | EC50 (read off the curve) (Cynomolgus monkey AXL) [ng/mL] | Kd [3] [nM] | koff [3] [s⁻¹] | kon [3] [M⁻¹ s⁻¹] | EC50 (read off the curve) [5] [ng/mL] | other results
Ab1-ConjE (Ab1 conjugated to the ConjE PBD payload, DAR 2.2) (other, ConjE PBD drug-linker on cysteine thiol(s) of the antibody, sites not stated; DAR 2.2) VH: EVQLVESGGDLVKPGGSLKLSCAASGFTFSSYGMSWVRQTPDKRLEWVATISSGGSYTYYPDSVKGRFTISRDNAKNTLYLQMSSLKSEDTAMYYCARHPIYYTYDDTMDYWGQGTSVTVSS VL: ENVLTQSPAIMAASPGEKVTMTCSASSSVSSGNFHWYQQKPGTSPKLWIYRTSNLASGVPARFSGSGSGTSYSLTISSMEAEDAATYYCQQWSGYPWTFGGGTKLEIK | 6.95 | – | – | – | – | – | –
Ab2-ConjE (Ab2 conjugated to the ConjE PBD payload, DAR 2.4) (other, ConjE PBD drug-linker on cysteine thiol(s) of the antibody, sites not stated; DAR 2.4) VH: MGFKMESQFQVFVFVFLWLSGVDGQVQLVESGGGVVQPGRSLRLSCAASGFTFSSYGMSVRQAPGKGLEWVATISSGGSYTYYPDSVKGRFTISRDNSKNTLYLQMNSLRAEDTAVYYCARHPIYYTYDDTMDYWGQGTTVTVSS VL: EIVLTQSPATLSLSPGERATLSCSASSSVSSGNFHWYQQKPGLAPRLLIYRTSNLASGIPDRFSGSGSGTDFTLTISRLEPEDFAVYYCQQWSGYPWTFGPGTKVDIK | 73 | – | – | – | – | – | –
Ab3-ConjE (Ab3 conjugated to the ConjE PBD payload, DAR 2.2) (other, ConjE PBD drug-linker on cysteine thiol(s) of the antibody, sites not stated; DAR 2.2) VH: MGFKMESQFQVFVFVFLWLSGVDGQVQLVESGGGVVQPGRSLRLSCAASGFTFSSYGMSVRQAPGKGLEWVATISSGGSYTYYPDSVKGRFTISRDNSKNTLYLQMNSLRAEDTAVYYCARHPIYYTYDDTMDYWGQGTTVTVSS VL: EIVLTQSPGTLSLSPGERATLSCSASSSVSSGNFHWYQQKPGLAPRLLIYRTSNLASGIPARFSGSGSGTDFTLTISSLEPEDFAVYYCQQWSGYPWTFGGGTKLEIK | 27.6 | – | – | – | – | – | –
Ab4-ConjE (Ab4 conjugated to the ConjE PBD payload, DAR 2.6) (other, ConjE PBD drug-linker on cysteine thiol(s) of the antibody, sites not stated; DAR 2.6) VH: EVQLVESGGGLVQPGGSLRLSCAASGFTFSSYGMSWVRQAPGKGLEWVATISSGGSYTYYPDSVKGRFTISRDNAKNSLYLQMNSLRAEDTAVYYCARHPIYYTYDDTMDYWGQGTLVTVSS VL: EIVLTQSPATLSLSPGERATLSCSASSSVSSGNFHWYQQKPGLAPRLLIYRTSNLASGIPDRFSGSGSGTDFTLTISRLEPEDFAVYYCQQWSGYPWTFGPGTKVDIK | 64.2 | – | – | – | – | – | –
Ab5-ConjE (Ab5 conjugated to the ConjE PBD payload, DAR 2.3) (other, ConjE PBD drug-linker on cysteine thiol(s) of the antibody, sites not stated; DAR 2.3) VH: EVQLVESGGGLVQPGGSLRLSCAASGFTFSSYGMSWVRQAPGKGLEWVATISSGGSYTYYPDSVKGRFTISRDNAKNSLYLQMNSLRAEDTAVYYCARHPIYYTYDDTMDYWGQGTLVTVSS VL: EIVLTQSPGTLSLSPGERATLSCSASSSVSSGNFHWYQQKPGLAPRLLIYRTSNLASGIPARFSGSGSGTDFTLTISSLEPEDFAVYYCQQWSGYPWTFGGGTKLEIK | 44 | – | – | – | – | – | –
Ab1, anti-AXL antibody comprising the murine 1H12 VH (SEQ ID NO. 1) and VL (SEQ ID NO. 4) and a constant region derived from one or more human antibodies (antibody, V domains shown, also called Abl; chimeric 1H12) VH: EVQLVESGGDLVKPGGSLKLSCAASGFTFSSYGMSWVRQTPDKRLEWVATISSGGSYTYYPDSVKGRFTISRDNAKNTLYLQMSSLKSEDTAMYYCARHPIYYTYDDTMDYWGQGTSVTVSS VL: ENVLTQSPAIMAASPGEKVTMTCSASSSVSSGNFHWYQQKPGTSPKLWIYRTSNLASGVPARFSGSGSGTSYSLTISSMEAEDAATYYCQQWSGYPWTFGGGTKLEIK | – | ~20 | 4.6 | 0.000142 | 30900 | ~10 | Kd [1]: 40.7 nM; koff [2]: 0.000533 s⁻¹; kon [2]: 13100 M⁻¹ s⁻¹; EC50 (read off the curve) [4]: ~30 ng/mL
Ab4, anti-AXL antibody comprising VH SEQ ID NO. 3 and VL SEQ ID NO. 5 and a constant region derived from one or more human antibodies (antibody, V domains shown) VH: EVQLVESGGGLVQPGGSLRLSCAASGFTFSSYGMSWVRQAPGKGLEWVATISSGGSYTYYPDSVKGRFTISRDNAKNSLYLQMNSLRAEDTAVYYCARHPIYYTYDDTMDYWGQGTLVTVSS VL: EIVLTQSPATLSLSPGERATLSCSASSSVSSGNFHWYQQKPGLAPRLLIYRTSNLASGIPDRFSGSGSGTDFTLTISRLEPEDFAVYYCQQWSGYPWTFGPGTKVDIK | – | ~20 | 1.37 | 0.000396 | 290000 | ~20 | koff [6]: 0.00059 s⁻¹; kon [6]: 9760 M⁻¹ s⁻¹; EC50 (read off the curve) [4]: ~30 ng/mL; Kd [7]: 60.4 nM
Ab5, anti-AXL antibody comprising VH SEQ ID NO. 3 and VL SEQ ID NO. 7 and a constant region derived from one or more human antibodies (antibody, V domains shown) VH: EVQLVESGGGLVQPGGSLRLSCAASGFTFSSYGMSWVRQAPGKGLEWVATISSGGSYTYYPDSVKGRFTISRDNAKNSLYLQMNSLRAEDTAVYYCARHPIYYTYDDTMDYWGQGTLVTVSS VL: EIVLTQSPGTLSLSPGERATLSCSASSSVSSGNFHWYQQKPGLAPRLLIYRTSNLASGIPARFSGSGSGTDFTLTISSLEPEDFAVYYCQQWSGYPWTFGGGTKLEIK | – | ~30 | 7.69 | 0.000159 | 20600 | ~20 | koff [6]: 0.000435 s⁻¹; kon [6]: 18900 M⁻¹ s⁻¹; Kd [7]: 23 nM
